Source: US20240383986A1 (OXFORD UNIVERSITY INNOVATION, published 2024)
Substitutions are numbered along the chain they refer to. Values belong to the molecule of their own block, whether it stands above or below them.

Legend:
[1] = molecular target: human CD1a expressed on cells (with human β2M) (human) (UniProt P06126)
[2] = molecular target: human CD1a expressed on cells (with human β2M) (human) (UniProt P06126); test: flow cytometry of ear skin cells of a CD1a transgenic mouse given isotype control (panel 'CD1a : iso'), SK9 staining; the WT mouse panel prints 1.30
[3] = molecular target: human CD1a expressed on cells (with human β2M) (human) (UniProt P06126); test: flow cytometry of ear skin cells of a CD1a transgenic mouse given antibody 116 100 µg i.p. on days 0, 2 and 4 (panel 'CD1a : OX116'), SK9 staining on day 5
[4] = molecular target: human CD1a expressed on cells (with human β2M) (human) (UniProt P06126); test: flow cytometry of ear skin cells of a CD1a transgenic mouse given isotype control (row 'CD1a : iso'), HI149 staining; the WT mouse panel prints 0
[5] = molecular target: human CD1a expressed on cells (with human β2M) (human) (UniProt P06126); test: flow cytometry of ear skin cells of a CD1a transgenic mouse given antibody 116 100 µg i.p. on days 0, 2 and 4 (row 'CD1a : OX116'), HI149 staining on day 5; the cloud lies on the lower edge of the gate
[6] = molecular target: human CD1a expressed on cells (with human β2M) (human, UniProt P06126 17-327; P61769 21-119); test: cell-based or functional assay
[7] = molecular target: T1, human CD1b expressed on HEK-293 cells (with human β2M) (human, UniProt P29016 18-333; P61769 21-119); test: flow cytometry, transfected HEK-293 cells
T1 construct: whole, on cells; also called HEK-CD1b

[8] = molecular target: T2, human CD1c expressed on HEK-293 cells (with human β2M) (human, UniProt P29017 18-333; P61769 21-119); test: flow cytometry, transfected HEK-293 cells
T2 construct: whole, on cells; also called HEK-CD1c

[9] = molecular target: T3, human CD1d expressed on HEK-293 cells (with human β2M) (human, UniProt P15813 20-335; P61769 21-119); test: flow cytometry, transfected HEK-293 cells
T3 construct: whole, on cells; also called HEK-CD1d

Molecule: HI149 (antibody)
IC50 of inhibition of the polyclonal T cell IFNγ ELISpot response to CD1a-K562 (n=6 donors) [1]: 1.14 mg/L
CD1a+ gate (percent of plotted cells) [4]: 82.2%
CD1a+ gate (percent of plotted cells) [5]: 46.6%

B1: 111 (VR12113) (antibody, V domains shown)
VH: QSVEESGGRLVTPGTPLTLTCTASGFSLSTYAMSWVRQAPGKGLEWIGIISSSGSTYYASWAKGRFTISKTSTTVDLKITSPTTEDTATYFCARETWYWLDLWGQGTLVTVSS
VL: AVEMTQTPASVSAAVGGTVTINCQASEDIYSNLAWYQQKPGQPPKLLIYGASTLASGVPSRFKGSGSGTEYTLTISGVQCDDAATYYCQCAYDSSSYGTPFGGGTEVVVK
IC50 of inhibition of the polyclonal T cell IFNγ ELISpot response to CD1a-K562 (n=6 donors) [6]: 1.04 mg/L
binding result [7]: no binding (tested: up to 100 µg/ml)
binding result [8]: no binding (tested: up to 100 µg/ml)
binding result [9]: no binding (tested: up to 100 µg/ml)

B2: 77A (VR11851) (antibody, V domains shown)
VH: QSVEESGGRLVTPGTPLTLTCTVSGFSLSSYAMSWVRQAPGKGLEWIGIISSSGTTYYASWAKGRFTISKTSTTVDLKITSPTTEDTATYFCARVDYYSSGWGGLWGPGTLVTVSS
VL: B1 VL with V11M, N22K, A91T, S94T, T99N, P100T, V107M, K110E
IC50 of inhibition of the polyclonal T cell IFNγ ELISpot response to CD1a-K562 (n=6 donors); table row '77' [6]: 0.181 mg/L
binding result [7]: no binding (tested: up to 100 µg/ml)
binding result [8]: no binding (tested: up to 100 µg/ml)
binding result [9]: no binding (tested: up to 100 µg/ml)

B3: 116 (VR12117) (antibody, V domains shown)
VH: QSVEESGGRLVTPGTPLTLTCTVSGFSLSNYAMSWVRQAPGKGLEWIGIIYTTGFTYYASWVKGRFTISKTSTTVDLKITSPTTEDTATYFCARGLATYVSPPTRLDLWGQGTLVTVSS
VL: AQVLTQTPSPVSAAVGGTVTINCQASQSIYNSKNLAWYQQKPGQPPKLLIYSASTLASGVPSRFKGSGSGTQFTLTISDLECDDAATYYCQGEFSCSSVDCATFGGGTEVVVK
notes: also called OX116
IC50 of inhibition of the polyclonal T cell IFNγ ELISpot response to CD1a-K562 (n=6 donors) [6]: 0.141 mg/L
binding result [7]: no binding (tested: up to 100 µg/ml)
binding result [8]: no binding (tested: up to 100 µg/ml)
binding result [9]: no binding (tested: up to 100 µg/ml)

More lines, now with the values ahead:

IC50 of inhibition of the polyclonal T cell IFNγ ELISpot response to CD1a-K562 (n=6 donors) [1]: 1.97 mg/L
Molecule: OKT6 (antibody)

IC50 of inhibition of the polyclonal T cell IFNγ ELISpot response to CD1a-K562 (n=6 donors) [1]: 6960 mg/L
CD1a+ gate (percent of plotted cells) [2]: 84.9%
CD1a+ gate (percent of plotted cells) [3]: 87.4%
Molecule: SK9 (antibody)

IC50 of inhibition of the polyclonal T cell IFNγ ELISpot response to CD1a-K562 (n=6 donors) [6]: 0.155 mg/L
binding result [7]: no binding (tested: up to 100 µg/ml)
binding result [8]: no binding (tested: up to 100 µg/ml)
binding result [9]: no binding (tested: up to 100 µg/ml)
B4: 110 (VR12112) (antibody, V domains shown)
VH: QSVEESGGRLVTPGTPLTLTCTVSGFSLSSYAMIWVRQAPGKGLEWIGIINSSDNTHYATWAKGRFTISKTSTTVDLKITSPTTEDTATYFCARDPYDYGYGWYFDLWGPGTLVTVSS
VL: AQVLTQTPSPVSAAVGGTVTINCQASQSVFNNKNLAWYQQKPGQPPKLLIYKASTLASGVSSRFKGSGSGTQFALTISGVQCDDAATYYCQGEFSCSSTDCVTFGGGTEVVVK
